Among the data in patent publication US20100210473A1 are Kd values, retold here.

Test [1] addresses antigen of Z13e1 scFv ('its antigen').
The target in test [2] is monomeric gp120 (HIV-1) (HIV-1). Put plainly: yeast display flow cytometry, gp120 titrated in the absence of sCD4, MFI of antigen binding (sandwich with biotinylated mAb and SA-PE). For orientation: Flow cytometry measures light scatter and fluorescence of single cells or particles in a stream.
Test [3] has as its target gp120 complexed with soluble CD4 (HIV-1). As to the kind of experiment: yeast display flow cytometry, gp120 titrated in the presence of sCD4, MFI of antigen binding (sandwich with biotinylated mAb and SA-PE).

In general, Kd refers to the constant that tells how readily two partners part at equilibrium. Regarding Z13e1 scFv displayed on yeast, in test [1], the Kd is 0.05 µM. With “scFv X5 displayed on yeast (X5-pPNLS in EBY100)”, the Kd was 0.0145 µM in test [2] and 0.0011 µM in test [3].
